Measured values as given in patent US20200199244A1 (published 2020).

Legend:
[1] = target: T1, rhesus macaque CD40 on CD20+ B cells in blood (rhesus macaque, UniProt F6SNI1 21-278); experiment: flow cytometry on whole blood, PE-streptavidin detection, gate on CD20+ B cells
T1 construct: whole, on cells; also called rhesus CD40
Experimental: (§1) 100 μl from each blood sample was aliquoted to 12×75 mm tubes and washed 3 times with FACS buffer (0.5% FBS/PBS/0.1% sodium azide). Tubes were centrifuged for 5 minutes at 1500 rpm, and supernatants were decanted between washes. Following the washes, tubes were placed on ice and incubated with human IgG for 5 minutes to block non-specific binding via Fc receptors.
(§2) For biotin-conjugated dAb detection, PE-labeled streptavidin (Invitrogen) and APC-labeled CD20 antibody (clone 2H7, BD Biosciences) were added to tubes and incubated 30 minutes at room temperature.
(§3) To lyse red blood cells and fix white blood cells following detection antibody incubation, FACS Lysing Solution (BD Biosciences) was added to all tubes, and samples were incubated for 15 minutes at room temperature. Samples were centrifuged and resuspended in FACS Lysing Solution, and analyzed by flow cytometry on a BD FACSCanto™, gating on CD20+ B cells for analysis. For marmoset samples, the CD20 antibody was not cross reactive; therefore analysis was performed on all lymphocytes as identified by forward and side scatter properties (size).

[2] = target: T2, cynomolgus monkey CD40 on CD20+ B cells in blood (Macaca fascicularis (cynomolgus monkey), UniProt P25942 21-277 (human entry)); experiment: as above
T2 construct: also called cynoCD40
T2 chain: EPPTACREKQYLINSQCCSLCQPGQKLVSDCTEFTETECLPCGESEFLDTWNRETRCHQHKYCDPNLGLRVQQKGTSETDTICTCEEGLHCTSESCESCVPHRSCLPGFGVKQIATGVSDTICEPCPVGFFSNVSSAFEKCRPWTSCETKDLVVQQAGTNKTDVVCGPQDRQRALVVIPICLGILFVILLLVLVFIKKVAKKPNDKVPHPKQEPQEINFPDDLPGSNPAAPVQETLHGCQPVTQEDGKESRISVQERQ
Experimental: as §1, §2, §3

[3] = target: human CD40 on primary human cells (blood CD20+ B cells, tonsillar B cells, monocyte-derived dendritic cells) (human, UniProt P25942 21-277); experiment: flow cytometry on human whole blood, PE-streptavidin detection, gate on CD20+ B cells
Experimental: as §1, §2, §3

[4] = target: T3, marmoset CD40 on blood lymphocytes (marmoset, UniProt Q3LRP1 21-274); experiment: flow cytometry on whole blood, PE-streptavidin detection, all lymphocytes by scatter
T3 construct: whole, on cells
Experimental: as §1, §2, §3

B1: BMS3h38-2-biotin (other)
VH: EVQLLASGGGLVQPGGSLRLSCAASGFTFEEEEMIWVRQAPGKGLEWVSAISGSGGSTYYADSVKGRFTISRDNSKNTLYLQMNSLRAEDTAVYYCGKEPFRYDYWGQGTLVTVSS
modifications: biotin-conjugated; site not stated
notes: Biotin conjugate of dAb BMS3h-38-2; also called biotin-conjugated dAb
binding result [1]: no binding
binding result [2]: no binding
binding result [3]: binds
binding result [4]: no binding
